Results reported in patent US20130130315A1 (ADVANCECOR, published 2013).

Molecular target: T1, CD133 protein (UniProt O43490 20-865, limits assumed)
T1 construct: whole, on cells; Presented on AC133/293 cells: paraformaldehyde-fixed in the cellular ELISA, unfixed in the phage FACS; also called CD133 antigen; AC133
T1 sequence (looked up): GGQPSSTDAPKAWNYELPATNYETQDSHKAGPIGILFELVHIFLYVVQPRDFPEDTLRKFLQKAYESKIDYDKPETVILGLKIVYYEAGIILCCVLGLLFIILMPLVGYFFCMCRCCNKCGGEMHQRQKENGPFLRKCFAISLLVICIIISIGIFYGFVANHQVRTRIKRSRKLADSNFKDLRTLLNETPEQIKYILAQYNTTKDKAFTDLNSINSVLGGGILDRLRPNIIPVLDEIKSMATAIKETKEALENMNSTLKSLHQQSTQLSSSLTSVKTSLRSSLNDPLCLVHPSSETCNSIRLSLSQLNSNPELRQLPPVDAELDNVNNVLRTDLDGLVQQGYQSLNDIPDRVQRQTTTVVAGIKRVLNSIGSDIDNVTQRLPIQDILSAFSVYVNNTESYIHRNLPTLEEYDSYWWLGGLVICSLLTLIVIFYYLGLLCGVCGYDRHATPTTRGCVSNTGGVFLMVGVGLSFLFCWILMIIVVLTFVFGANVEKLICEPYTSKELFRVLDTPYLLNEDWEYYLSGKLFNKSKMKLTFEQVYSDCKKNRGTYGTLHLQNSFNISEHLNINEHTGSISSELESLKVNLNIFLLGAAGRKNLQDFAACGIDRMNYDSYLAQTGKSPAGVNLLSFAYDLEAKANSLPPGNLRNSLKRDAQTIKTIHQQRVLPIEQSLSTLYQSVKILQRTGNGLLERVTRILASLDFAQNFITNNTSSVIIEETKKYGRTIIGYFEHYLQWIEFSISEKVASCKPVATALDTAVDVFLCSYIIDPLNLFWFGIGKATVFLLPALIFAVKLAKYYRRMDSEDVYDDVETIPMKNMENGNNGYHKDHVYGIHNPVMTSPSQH
Test: cellular ELISA, threefold dilution series on fixed AC133/293 cells
Method: 1×10⁵ cells in 0.2 ml of medium were added to each well and incubated o/n at 37° C., 5% CO₂ to allow cells to attach to the surface of the plate. The next day wells were washed once with 0.2 ml PBS and fixed with 0.1 ml 2% Paraformaldehyde (in PBS, pH 7.4) for 10-20 min at RT. Wells were washed with PBS-T (PBS+0.1% Tween-20) and blocked with either 1× RotiBlock or 3% milk in PBS-T for 1 hour at RT. After washing with PBS-T, serial dilutions of the respective antibody were added to the wells and incubated at RT for at least one hour while shaking. After washing with PBS-T, 0.1 ml of StrepMAb-Classic-HRP (1:10000 in PBS-T, lba BioTagnology, Göttingen, Germany) or of horseradish peroxidase linked anti-mouse IgG (1:10000 in PBS-T, Dianova, Hamburg, Germany) was added and incubated at RT for one hour with shaking. After washing with PBS-T, 0.1 ml of 1-Step Ultra TMB-ELISA substrate (Thermo Scientific, Braunschweig, Germany) was added and incubated until an adequate blue staining developed. To stop the reaction 0.1 ml 1 M H₂SO₄ was added to each well and absorbance at 450 nm and 595 nm as a reference was measured with an infinite F200 plate reader (TECAN, Männedorf, Switzerland). […] Signals were detected using an anti-mouse IgG-HRP antibody (1:10000 in PBS-T, Dianova, Hamburg, Germany). […]

B1: single chain antibody scFv-hl (scFv, not shown: large carriers)
scFv: EVQLQQSGPDLMKPGASVKISCKASGYSFTNYYVHWVKQSLDKSLEWIGYVDPFNGDFNYNQKFKDKATLTVDKSSSTAYMHLSSLTSEDSAVYYCARGGLDWYDTSYWYFDVWGAGTAVTVSSGGGGSGGGGSGGGGSDILMTQSPKSMSMSLGERVTLSCKASENVDTYVSWYQQKPEQSPKVLIYGASNRYTGVPDRFTGSGSATDFSLTISNVQAEDLADYHCGQSYRYPLTFGAGTKLELK
notes: Orientation heavy-light; Produced and purified solely from E. coli
Q: Does B1 bind?
A: Result: no binding
